The subject of the series is MS2 coat protein. Put plainly: apparent KD of MS2 coat protein; designed switch direction (-1 OFF switch, 1 ON switch): 1; higher = weaker reporter binding. In short, it runs like this: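 Designed RNA switches with common flanks were made on Illumina chips by stalled E. coli RNA polymerase. Titration with SNAP-549-labelled MS2 coat protein doubled from 0.7 or 1.5 nM up to 3 µM. Apparent KD is each design's median over clusters after curve-fitting normalised fluorescence.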

[1] abbreviates: Eterna round: R95, input ligand: FMN 200 uM.
[2] abbreviates: Eterna round: R95, input ligand: microRNA oligo, concentration not stated.
The mark [3] stands for this setting: Eterna round: R95, input ligand: none.
[4] abbreviates: input ligand: microRNA oligo, concentration not stated.

As for “CGUAGGUAGCUGGAGGAUAUCCGAGUGGUAACAUGAGGAUCACCCAUGUGAUGAAAGGAACAUGAGGAGAAGGCUAGCUGCCUGC [JL-ss2-3.11 JL mod] (puzzle: Same State 2)”, the “apparent KD of MS2 coat protein” value under setting [1] is 0.0154 µM, the “apparent KD of MS2 coat protein” value under setting [2] was 0.029 µM and the “apparent KD of MS2 coat protein” value under setting [3] is 0.0309 µM.
The matching figures for “UGGAUCUAGGCUUGCCUGGGUCCAUGUUGACAUGAGGAUCACCCAUGUGUAUUUUUUUAGCUUUUUGUUUGUCAACU [JL A Humble Attempt mod 10] (puzzle: Sensor for hsa-mir-208a)”: 0.0262 µM, 0.013 µM and 0.0255 µM.
Turning to “UUCACCUUUUAUAACAUGAGGAUCACCCAUGUAUAUUGUACGUAGGAUAUCGAUGUUUGUUUUUUCGAGAAGGACGAUGUAAGU [JR_SSND3_Sub050] (Eterna round: R96, puzzle: Same State NG 3)”, the “apparent KD of MS2 coat protein” value is 0.037 µM (input ligand: FMN 200 uM), 0.0254 µM under setting [4] and 0.0389 µM (input ligand: none).
In the case of “AACCCAAUGGAAGGAUAUGGCACCUUAUUGGUGCCAGAAGGUCCUAACAUGAGGAUCACCCAUGUGGGCCGGUCUUAAGACCGG [Fiskers NG1ss - 8] (Eterna round: R96, puzzle: Same State NG 1)”, the “apparent KD of MS2 coat protein” value runs as follows: (input ligand: FMN 200 uM) 0.142 µM; under setting [4], 0.382 µM; (input ligand: none) 0.456 µM.
In the case of “GUUACAUGAGGAUCACCCAUGUAUGUGUGGGAGUAAGUGUCUUAGGAUAUCUAUGAUGUAAUUUAAGAGAAGGAAGAUUGUUGU [JMF's solution 76] (Eterna round: R96, puzzle: Same State NG 3)”, the “apparent KD of MS2 coat protein” value reads like this: (input ligand: FMN 200 uM) 0.135 µM; under setting [4], 0.128 µM; (input ligand: none) 0.15 µM.
For “GUGGUGCUUCUAGGAUAUUCAGCGGCCCUCACAUGAGGAUCACCCAUGUUCACAAGAGAAACCAUGAAGAAGGAGAACUACAAU [Eternabot solution 42] (Eterna round: R96, puzzle: Same State NG 2)” the same measures were 0.0456 µM, 0.0399 µM and 0.0558 µM.
The matching figures for “AAACGUCACAUGAGGAUCACCCAUGUAGCCAUAAGAAGCGGACAGGAUAUUGACCUGAACGGAGUCAAGAAGGGUCAGUAUCAG [Eternabot solution 1] (Eterna round: R96, puzzle: Same State NG 3)”: 0.0147 µM, 0.0129 µM and 0.0182 µM.
Consider “CUCAAACAUGAGGAUCACCCAUGUGUUGUCAUGGGAGGAUAUCUAAGUUCAUUGUAUUCAGGAGAAGGCCUAUGUC [× ×•×ª×• ×ž×“×™× ×” × ×—×ª-08] (puzzle: Same State 1)”, for which the “apparent KD of MS2 coat protein” value under setting [2] turned out to be 0.284 µM.
As for “UACAAUCUAUCUGAGGAUAUCAUGAUUAUAACAUGAGGAUCACCCAUGUGCAGGAAAACUGCAUAUGAGAAGGCAGAUAGAUUGU [salish99_ss2_r3_069] (puzzle: Same State 2)”, the “apparent KD of MS2 coat protein” value amounted to 0.228 µM under setting [1], 1.63 µM under setting [2] and 0.11 µM under setting [3].
For the sequence “AGCCGAGACUGAGGAUAUAGAUAUCUACAUGAGGAUCACCCAUGUAGCAACACGUGGUAGUGAUUCUAGAAGGCGGCUCGGCGC [Omei SS(NG)2 Cv6] (Eterna round: R96, puzzle: Same State NG 2)”, the “apparent KD of MS2 coat protein” value amounted to 0.0192 µM (input ligand: FMN 200 uM), 0.0662 µM under setting [4] and 0.0837 µM (input ligand: none).
The matching figures for “GUUACAUGAGGAUCACCCAUGUAUGUGUGGGAGUAAGUGUCUUAGGAUAUCUAUGAAUUAAUUUAAGAGAAGGAAGAUUGUUGU [JMF's solution 73] (Eterna round: R96, puzzle: Same State NG 3)”: 0.107 µM, 0.0733 µM and 0.112 µM.
The matching figures for “GUAGCAUACCGAGGAUAUUCAUAUACAUGAGGAUCACCCAUGUUAAUAUAGGCCAAAAGGCCUUGGGAGAAGGCGGAAUGCUAC [Xeonanis - 20 Mod11] (Eterna round: R96, puzzle: Same State NG 2)”: 0.00901 µM, 0.00983 µM and 0.0133 µM.
On to “UGGUAACAUGAGGAUCACCCAUGUCAAAUGAAUCGAGGAUAUGGGAAAGGAGAAGAGAAACUAGAAGGCGAAGUUG [Altered State 1-12 - Jieux - Same State 1] (puzzle: Same State 1)”, for which the “apparent KD of MS2 coat protein” value reads like this: under setting [1], 0.202 µM; under setting [2], 0.191 µM; under setting [3], 0.148 µM.
Turning to “AAUUAAUUAAUUAAUAUACAUGAGGAUCACCCAUGUAAGAUCAAGGAUAUCAGCUCGUGUAGAGCUGAGAAGGUGAUCACAUGU [SSNG3/16-A4] (Eterna round: R96, puzzle: Same State NG 3)”, the “apparent KD of MS2 coat protein” value stood at 0.345 µM (input ligand: FMN 200 uM), 0.0925 µM under setting [4] and 0.166 µM (input ligand: none).
For “GCUAGAAAUAAUGCCAACAUGAGGAUCACCCAUGUAUGUUGGCAGGAUAUCGUUUGCAAAGCAAACGAGAAGGGCUAAACUAGC [Mat - Same State NG 3 - JL Mod - D8] (Eterna round: R96, puzzle: Same State NG 3)” the same measures were 0.236 µM, 0.237 µM and 0.338 µM.
Regarding “UAGAAACAUGAGGAUCACCCAUGUGUCAAAGACAUAGGAUAUCACGACUGGAGUCAAUCGUGAGAAGGGUGGUAAA [Usra] (puzzle: Same State 1)”, the “apparent KD of MS2 coat protein” value was 0.0923 µM under setting [1], 0.0194 µM under setting [2] and 0.0387 µM under setting [3].
For “GGUCCAGCCUGAGCUGGACAAAAGCAUGUACAUGAGGAUCACCCAUGUCAUGUACAAGCUUUUUGCUCGUCUAAAAG [Mat - hsa-mir-208a - 95] (puzzle: Sensor for hsa-mir-208a)” the same measures were 0.234 µM, 0.019 µM and 0.467 µM.
With “AUACAGGAGCCACAUGAGGAUCACCCAUGUGACACGCAAAUGAAGGAUAUCCGACUCCAGACGAGGGAGAAGGUCACGGCGGGC [Eternabot solution 13] (Eterna round: R96, puzzle: Same State NG 3)”, the “apparent KD of MS2 coat protein” value (input ligand: FMN 200 uM) was determined as 0.0166 µM, the “apparent KD of MS2 coat protein” value under setting [4] is 0.0115 µM and the “apparent KD of MS2 coat protein” value (input ligand: none) was 0.0201 µM.
The matching figures for “AGGGAGGAAGCUGAGGAUAUCGUAAGGAGGACAUGAGGAUCACCCAUGUGUGUGGAAUUGGAGGACGAGAAGGCAGAGGAGUGGG [JR_SS2_Sub054] (Eterna round: R96, puzzle: Same State 2)”: 0.0405 µM, 0.035 µM and 0.0384 µM.
In the case of “GCUAGGAUUAAAGCCAACAUGAGGAUCACCCAUGUAUGUUGGUAGGAUAUCGUUUGCUUUGCAAACGAGAAGGGCUAACCUAGC [JL SSNG3 1.23] (Eterna round: R96, puzzle: Same State NG 3)”, the “apparent KD of MS2 coat protein” value reads like this: (input ligand: FMN 200 uM) 0.0706 µM; under setting [4], 0.0578 µM; (input ligand: none) 0.0621 µM.

Source of the values: the supplement of paper PMC9170038.
